Experimental data from publication PMC3476528.
Where “and” joins values, the source holds several entries; their conditions need not be identical. Equal values may be shown once.

B1: CHD4 tPHDtCHD/ATPase construct (minimal construct containing all three domains) (domain or fragment)
chain: YETDHQDYCEVCQQGGEIILCDTCPRAYHMVCLDPDMEKAPEGKWSCPHCEKEGIQWEAKEDNSEGEEILEEVGGDLEEEDDHHMEFCRVCKDGGELLCCDTCPSSYHIHCLNPPLPEIPNGEWLCPRCTCPALKGKVQKILIWKWGQPPSPTPVPRPPDADPNTPSPKPLEGRPERQFFVKWQGMSYWHCSWVSELQLELHCQVMFRNYQRKNDMDEPPSGDFGGDEEKSRKRKNKDPKFAEMEERFYRYGIKPEWMMIHRILNHSVDKKGHVHYLIKWRDLPYDQASWESEDVEIQDYDLFKQSYWNHRELMRGEEGRPGKKLKKVKLRKLERPPETPTVDPTVKYERQPEYLDATGGTLHPYQMEGLNWLRFSWAQGTDTILADEMGLGKTVQTAVFLYSLYKEGHSKGPFLVSAPLSTIINWEREFEMWAPDMYVVTYVGDKDSRAIIRENEFSFEDNAIRGGKKASRMKKEASVKFHVLLTSYELITIDMAILGSIDWACLIVDEAHRLKNNQSKFFRVLNGYSLQHKLLLTGTPLQNNLEELFHLLNFLTPERFHNLEGFLEEFADIAKEDQIKKLHDMLGPHMLRRLKADVFKNMPSKTELIVRVELSPMQKKYYKYILTRNFEALNARGGGNQVSLLNVVMDLKKCCNHPYLFPVAAMEAPKMPNGMYDGSALIRASGKLLLLQKMLKNLKEGGHRVLIFSQMTKMLDLLEDFLEHEGYKYERIDGGITGNMRQEAIDRFNAPGAQQFCFLLSTRAGGLGINLATADTVIIYDSDWNPHNDIQAFSRAHRIGQNKKVMIYRFVTRASVEERITQVAKKKMMLTHLVVRPGL
modifications: not checked
B2: CHD4 tPHDtCHD construct (tandem PHD and tandem chromodomains) (domain or fragment)
chain: YETDHQDYCEVCQQGGEIILCDTCPRAYHMVCLDPDMEKAPEGKWSCPHCEKEGIQWEAKEDNSEGEEILEEVGGDLEEEDDHHMEFCRVCKDGGELLCCDTCPSSYHIHCLNPPLPEIPNGEWLCPRCTCPALKGKVQKILIWKWGQPPSPTPVPRPPDADPNTPSPKPLEGRPERQFFVKWQGMSYWHCSWVSELQLELHCQVMFRNYQRKNDMDEPPSGDFGGDEEKSRKRKNKDPKFAEMEERFYRYGIKPEWMMIHRILNHSVDKKGHVHYLIKWRDLPYDQASWESEDVEIQDYDLFKQSYWNHRELMRGEEGRPGKKLKKVKLRKL
modifications: not checked
B3: CHD4 tandem plant homeodomain zinc fingers (tPHD) construct (domain or fragment)
chain: YETDHQDYCEVCQQGGEIILCDTCPRAYHMVCLDPDMEKAPEGKWSCPHCEKEGIQWEAKEDNSEGEEILEEVGGDLEEEDDHHMEFCRVCKDGGELLCCDTCPSSYHIHCLNPPLPEIPNGEWLCPRCTCPALKGK
modifications: not checked

Legend:
[1] = target: T1, histone H3 peptide 1-21 monomethylated on K9, biotinylated, P68431; assay: SPR; biotinylated histone H3 peptides immobilised on streptavidin sensor, CHD4 constructs injected at 100 μl/min; 25 °C; 20 mM Tris pH 7.5, 200 mM NaCl, 0.05% polysorbate 20; Kd from the steady-state response, sensorgrams when appropriate globally fitted; three repeats
[2] = target: T2, histone H3 peptide 1-21 trimethylated on K9, biotinylated, P68431; assay: as above
[3] = target: T3, histone H3 peptide 1-21 dimethylated on K9, biotinylated, P68431; assay: as above
[4] = target: histone H3 peptide 1-21, unmodified, biotinylated, P68431; assay: as above
[5] = target: T4, nucleosome core particle reconstituted from recombinant X. laevis histones and a 168 bp fragment of 601-DNA (X. laevis)
[6] = target: T1, histone H3 peptide 1-21 monomethylated …; assay: SPR; as a1 but tPHDtCHD/ATPase injected with added ATP
[7] = target: T2, histone H3 peptide 1-21 trimethylated …; assay: as above
[8] = target: T3, histone H3 peptide 1-21 dimethylated on …; assay: as above
[9] = target: histone H3 peptide 1-21, unmodified, biotinylated, P68431; assay: as above
[10] = target: T4, nucleosome core particle reconstituted …; assay: native gel or EMSA; 50 fmol radiolabeled mononucleosomes with increasing amounts of CHD4 constructs, 15 min on ice, 20 Tris-HCl pH 8, 200 mM NaCl, 10% sucrose; 5% native polyacrylamide gel, autoradiography

Binder | Kd [1] | Kd [2] | koff [2] | kon [2] | Kd [3] | koff [3] | kon [3] | Kd [4] | koff [4] | kon [4] | concentration necessary for binding [10] | further results
B1 | 2.9 µM | 2.6 µM | 0.025 s⁻¹ | 1000 M⁻¹ s⁻¹ | 4.7 µM | 0.0056 s⁻¹ | 1200 M⁻¹ s⁻¹ | 4.1 µM | 0.0135 s⁻¹ | 3300 M⁻¹ s⁻¹ | 0.06 µM | koff [1]: 0.026 s⁻¹; kon [1]: 900 M⁻¹ s⁻¹; ATPase activity (kcat, phosphate release assay) with 0.32 pmol of mono-nucleosome particles; about 6-fold stimulation [5]: 0.0615 s⁻¹; Kd [6]: 6.9 µM; Kd [7]: 0.5 µM; koff [7]: 0.018 s⁻¹; kon [7]: 36000 M⁻¹ s⁻¹; Kd [8]: 1.7 µM; koff [8]: 0.0073 s⁻¹; kon [8]: 4300 M⁻¹ s⁻¹; Kd [9]: 1.4 µM; koff [9]: 0.0265 s⁻¹; kon [9]: 18900 M⁻¹ s⁻¹
B2 | 24 µM | 21 µM and 10 µM |  | 33000 M⁻¹ s⁻¹ | 8.6 µM | 0.31 s⁻¹ |  | 14 µM and 19 µM | 0.68 s⁻¹ | 50000 M⁻¹ s⁻¹ | 0.5 µM | 
B3 | 42 µM | 70 µM and 48 µM | 0.17 s⁻¹ | 3500 M⁻¹ s⁻¹ | 63 µM and 51 µM | 0.2 s⁻¹ | 3900 M⁻¹ s⁻¹ | 190 µM and 188 µM | 0.49 s⁻¹ | 2600 M⁻¹ s⁻¹ | 10 to 20 µM | 
